Reference: US20250152742A1, “COMPOSITIONS AND METHODS FOR NEUROLOGICAL DISEASES” (Trames Bio, Inc., priority 2022, published 2025)
Substitutions are numbered along the chain they refer to. Names and notes keep the numbering of the source.

Test system: engineered chimeric receptor SEQ ID NO: 33 and its mutants (human α7-nAChR ligand binding domain / human GlyRα1 ion pore domain) in Lenti-X 293T cells
Test: YFP fluorescence quenching anion reporter plate reader assay (percent quench, EC50)
Type: cell-based
Settings: for YFP fluorescence quenching using CNL001 (percent quench): receptor named in row; for YFP fluorescence quenching using Facinicline, 30 nM fac: ligand Facinicline 30 nM; for YFP fluorescence quenching using Facinicline, 300 nM fac: ligand Facinicline 300 nM; for YFP fluorescence quenching using Facinicline, 30 uM fac: ligand Facinicline 30 uM; for YFP fluorescence quenching using TC-6987, 1 uM tc6987: ligand TC-6987 1 uM; for YFP fluorescence quenching using TC-6987, 10 uM tc6987: ligand TC-6987 10 uM; for YFP fluorescence quenching using TC-6987, 500 uM tc6987: ligand TC-6987 500 uM; for YFP fluorescence quenching using Varenicline, 3 nM var: ligand Varenicline 3 nM; for YFP fluorescence quenching using Varenicline, 30 nM var: ligand Varenicline 30 nM; for YFP fluorescence quenching using Varenicline, 300 nM var: ligand Varenicline 300 nM; for YFP fluorescence quenching using Varenicline, 500 nM var: ligand Varenicline 500 nM; for YFP fluorescence quenching using Varenicline, 1 uM var: ligand Varenicline 1 uM
Source text: To screen these mutant LGICs for those having novel response profiles to ligands, an anion reporter assay was developed to assess the function of the LGICs in a high throughput format. In this assay, cells expressing a YFP reporter whose fluorescence is quenched in the presence of anion are transfected with DNA encoding the channel of interest. Upon exposure to ligand, channels that are activated will flux anion, resulting in a dose-dependent quench of the YFP that can be detected on a plate reader. The greater the quench signal (i.e., the more positive the value), the higher the ligand activity on the receptor is.
Lenti-X 293T cells (LX293T, Clontech) were maintained in DMEM containing 10% FBS and 1% penicillin/streptomycin (Invitrogen). […] Two days before assay, cells were split at a density of 20,000 cells/well in a 96-well tissue culture plate coated with poly-d lysine (Thermo Scientific). The next day, the cells were transiently transfected with 0.1 μg of DNA per well using standard Fugene protocol (Promega). On the day of assay, cells were washed 2 times in 1X extracellular solution (1X ECS: 140 mM NaCl, 5 mM KCl, 1 mM MgCl2, 2 mM CaCl2, 10 mM HEPES, 10 mM glucose, pH 7.2, mOsms 300). After the last wash, 100 μL of 1X ECS was added to the wells and the plate was incubated at 37° C. for 30 min. While incubating the plate, the drugs were diluted to a 2X concentration in 1X ECS-Nal (same components as 1X ECS except the 140 mM NaCl was replaced by 140 mM Nal). The plates were then read on a Flexstation3 (Molecular Devices). Each well, 8 wells at a time, of the plate is read for 2 min using a Flexstation3 (Molecular Devices) as follows: 1) a baseline YFP fluorescence is read for 17 sec, 2) 100 μL of ligand is added, and 3) the changes in YFP fluorescence are then measured every 1.3 sec for 1 minute and 43 seconds. The percent quench is calculated from the average fluorescence of the last 10 seconds of the read divided by the baseline average of the first 15 seconds prior to the ligand addition.
FIGS. 1A-1J provide heat maps of the percent quench of YFP fluorescence following stimulation by various doses of either acetylcholine or the non-native ligand as indicated in the Figures. CODA71 (SEQ ID NO: 33) was used as a control, and CODA75 (SEQ ID NO: 29, a non-responding chimeric engineered receptor) was used as the negative control. Quenching of the fluorescence signal, as indicated by blue shaded cells, indicate the level of engineered receptor activation by the non-native ligand at that concentration.

[1] = 1 nM CNL001, first column so headed
[2] = 1 nM CNL001, second column so headed
[3] = 3 nM brd (TC-5619/Bradanicline)
[4] = 10 nM CNL001, first column so headed
[5] = 10 nM CNL001, second column so headed
[6] = 30 nM brd (TC-5619/Bradanicline)
[7] = 50 nM CNL001, first column so headed
[8] = 50 nM CNL001, second column so headed
[9] = 100 nM CNL001, first column so headed
[10] = 100 nM CNL001, second column so headed
[11] = 300 nM brd (TC-5619/Bradanicline)
[12] = 1 uM CNL001, first column so headed
[13] = 1 uM CNL001, second column so headed

B1: CODA236: engineered receptor: R101F in SEQ ID NO: 33 (protein)
chain: MRCSPGGVWLALAASLLHVSLQGEFQRKLYKELVKNYNPLERPVANDSQPLTVYFSLSLLQIMDVDEKNQVLTTNIWLQMSWTDHYLQWNVSEYPGVKTVFFPDGQIWKPDILLYNSADERFDATFHTNVLVNSSGHCQYLPPGIFKSSCPMDLKNFPMDVQTCKLKFGSWSYGGWSLDLQMQEADISGYIPNGEWDLVGIPGKRSERFYECCKEPYPDVTFTVTMRRRMGYYLIQMYIPSLLIVILSWISFWINMDAAPARVGLGITTVLTMTTQSSGSRASLPKVSYVKAIDIWMAVCLLFVFSALLEYAAVNFVSRQHKELLRFRRKRRHHKSPMLNLFQEDEAGEGRFNFSAYGMGPACLQAKDGISVKGANNSNTTNPPPAPSKSPEEMRKLFIQRAKKIDKISRIGFPMAFLIFNMFYWIIYKIVRREDVHNQ
modifications: synthetic sequence of chimeric LGIC
- YFP fluorescence quenching using CNL001 (percent quench) [1]: 9.048%
- YFP fluorescence quenching using CNL001 (percent quench) [2]: 26.601%
- YFP fluorescence quenching using TC-5619/Bradanicline (percent quench) [3]: 49.33%
- YFP fluorescence quenching using CNL001 (percent quench) [4]: 71.533%
- YFP fluorescence quenching using CNL001 (percent quench) [5]: 72.948%
- YFP fluorescence quenching using TC-5619/Bradanicline (percent quench) [6]: 77.38%
- YFP fluorescence quenching using CNL001 (percent quench) [7]: 75.895%
- YFP fluorescence quenching using CNL001 (percent quench) [8]: 74.238%
- YFP fluorescence quenching using ABT-126 (percent quench) (50 nM abt (ABT-126)): −18.69%
- YFP fluorescence quenching using CNL001 (percent quench) [9]: 76%
- YFP fluorescence quenching using CNL001 (percent quench) [10]: 75.861%
- YFP fluorescence quenching (percent quench) (100 nM CNL002): −9.56%
- YFP fluorescence quenching using ABT-126 (percent quench) (100 nM abt (ABT-126)): −23.01%
- YFP fluorescence quenching using AZD-0328 (percent quench) (100 nM azd0328): −9.78%
- YFP fluorescence quenching using ABT-126 (percent quench) (300 nM abt (ABT-126)): −20.92%
- YFP fluorescence quenching using AZD-0328 (percent quench) (300 nM azd0328): 49.64%
- YFP fluorescence quenching using TC-5619/Bradanicline (percent quench) [11]: 77.51%
- YFP fluorescence quenching using CNL001 (percent quench) [12]: 76.367%
- YFP fluorescence quenching using CNL001 (percent quench) [13]: 76.162%
- YFP fluorescence quenching (percent quench) (1 uM CNL002): 56.9%
- YFP fluorescence quenching using ABT-126 (percent quench) (1 uM abt (ABT-126)): 4.99%
- YFP fluorescence quenching (percent quench) (10 uM ach (acetylcholine)): −18.24%
- YFP fluorescence quenching (percent quench) (30 uM CNL002): 70.28%
- YFP fluorescence quenching using AZD-0328 (percent quench) (30 uM azd0328): 81.14%
- YFP fluorescence quenching (percent quench) (100 uM ach (acetylcholine)): 60%
- YFP fluorescence quenching (percent quench) (1 mM ach (acetylcholine)): 66.07%
- YFP fluorescence quenching (percent quench) (3 mM ach (acetylcholine)): 71.38%
- YFP fluorescence quenching using Facinicline, 30 nM fac: −28.54
- YFP fluorescence quenching using Facinicline, 300 nM fac: 72.98
- YFP fluorescence quenching using Facinicline, 30 uM fac: 87.6
- YFP fluorescence quenching using TC-6987, 1 uM tc6987: 45.34
- YFP fluorescence quenching using TC-6987, 10 uM tc6987: 70.04
- YFP fluorescence quenching using TC-6987, 500 uM tc6987: 75.86
- YFP fluorescence quenching using Varenicline, 3 nM var (first column): 19.949
- YFP fluorescence quenching using Varenicline, 3 nM var (second column): 22.334
- YFP fluorescence quenching using Varenicline, 30 nM var (first column): 15.764
- YFP fluorescence quenching using Varenicline, 30 nM var (second column): 16.213
- YFP fluorescence quenching using Varenicline, 300 nM var (first column): 23.135
- YFP fluorescence quenching using Varenicline, 300 nM var (second column): 22.987
- YFP fluorescence quenching using Varenicline, 500 nM var (first column): 35.048
- YFP fluorescence quenching using Varenicline, 500 nM var (second column): 34.188
- YFP fluorescence quenching using Varenicline, 1 uM var (first column): 71.031
- YFP fluorescence quenching using Varenicline, 1 uM var (second column): 71.005

B2: CODA237: engineered receptor: R101M in SEQ ID NO: 33 (protein)
chain: B1 chain with F101M
modifications: synthetic sequence of chimeric LGIC
- YFP fluorescence quenching using CNL001 (percent quench) [1]: −2.114%
- YFP fluorescence quenching using CNL001 (percent quench) [2]: −5.079%
- YFP fluorescence quenching using TC-5619/Bradanicline (percent quench) [3]: −14.87%
- YFP fluorescence quenching using CNL001 (percent quench) [4]: 15.096%
- YFP fluorescence quenching using CNL001 (percent quench) [5]: 50.554%
- YFP fluorescence quenching using TC-5619/Bradanicline (percent quench) [6]: 69.93%
- YFP fluorescence quenching using CNL001 (percent quench) [7]: 66.585%
- YFP fluorescence quenching using CNL001 (percent quench) [8]: 74.462%
- YFP fluorescence quenching using ABT-126 (percent quench) (50 nM abt (ABT-126)): −24.34%
- YFP fluorescence quenching using CNL001 (percent quench) [9]: 78%
- YFP fluorescence quenching using CNL001 (percent quench) [10]: 77.411%
- YFP fluorescence quenching (percent quench) (100 nM CNL002): −8.68%
- YFP fluorescence quenching using ABT-126 (percent quench) (100 nM abt (ABT-126)): −20.22%
- YFP fluorescence quenching using AZD-0328 (percent quench) (100 nM azd0328): −17.84%
- YFP fluorescence quenching using ABT-126 (percent quench) (300 nM abt (ABT-126)): −20.57%
- YFP fluorescence quenching using AZD-0328 (percent quench) (300 nM azd0328): −11.98%
- YFP fluorescence quenching using TC-5619/Bradanicline (percent quench) [11]: 76.57%
- YFP fluorescence quenching using CNL001 (percent quench) [12]: 79.06%
- YFP fluorescence quenching using CNL001 (percent quench) [13]: 79.162%
- YFP fluorescence quenching (percent quench) (1 uM CNL002): −2.24%
- YFP fluorescence quenching using ABT-126 (percent quench) (1 uM abt (ABT-126)): −19.55%
- YFP fluorescence quenching (percent quench) (10 uM ach (acetylcholine)): −16.79%
- YFP fluorescence quenching (percent quench) (30 uM CNL002): 66.99%
- YFP fluorescence quenching using AZD-0328 (percent quench) (30 uM azd0328): 81.2%
- YFP fluorescence quenching (percent quench) (100 uM ach (acetylcholine)): −18.63%
- YFP fluorescence quenching (percent quench) (1 mM ach (acetylcholine)): 46.28%
- YFP fluorescence quenching (percent quench) (3 mM ach (acetylcholine)): 69.31%
- YFP fluorescence quenching using Facinicline, 30 nM fac: −24.14
- YFP fluorescence quenching using Facinicline, 300 nM fac: −14.38
- YFP fluorescence quenching using Facinicline, 30 uM fac: 88.78
- YFP fluorescence quenching using TC-6987, 1 uM tc6987: −21.62
- YFP fluorescence quenching using TC-6987, 10 uM tc6987: 21.52
- YFP fluorescence quenching using TC-6987, 500 uM tc6987: 60.33
- YFP fluorescence quenching using Varenicline, 3 nM var (first column): 18.429
- YFP fluorescence quenching using Varenicline, 3 nM var (second column): 16.83
- YFP fluorescence quenching using Varenicline, 30 nM var (first column): 23.07
- YFP fluorescence quenching using Varenicline, 30 nM var (second column): 15.868
- YFP fluorescence quenching using Varenicline, 300 nM var (first column): 18.819
- YFP fluorescence quenching using Varenicline, 300 nM var (second column): 19.155
- YFP fluorescence quenching using Varenicline, 500 nM var (first column): 19.117
- YFP fluorescence quenching using Varenicline, 500 nM var (second column): 22.593
- YFP fluorescence quenching using Varenicline, 1 uM var (first column): 24.525
- YFP fluorescence quenching using Varenicline, 1 uM var (second column): 23.383
